In PMC7925178:

Legend:
[1] = biological target: AMC009 SOSIP.v5.2 trimer (HIV-1 (subtype B)); experiment: negative-stain electron microscopy; NS-EM, reference-free 2D class averages of purified SOSIP trimers; percent native-like trimers
[2] = biological target: AMC009 SOSIP.v5.2 trimer (HIV-1 (subtype B)); experiment: native gel or EMSA
[3] = biological target: AMC011 SOSIP.v4.2 trimer (HIV-1 (subtype B)); experiment: native gel or EMSA
[4] = biological target: AMC011 SOSIP.v5.2 trimer (HIV-1 (subtype B)); experiment: negative-stain electron microscopy; NS-EM, reference-free 2D class averages of purified SOSIP trimers; percent native-like trimers
[5] = biological target: AMC011 SOSIP.v5.2 trimer (HIV-1 (subtype B)); experiment: native gel or EMSA
[6] = biological target: AMC009 SOSIP.v4.2-D7324 trimer (HIV-1 (subtype B)); experiment: negative-stain electron microscopy; NS-EM, reference-free 2D class averages of purified SOSIP trimers; percent native-like trimers

**Q.** What does the source list for AMC009 SOSIP.v5.2 trimer (complex)?
**A.** % native-like trimers [1]: 100%; stoichiometry N [2]: 3

**Q.** Which stoichiometry N [3] does the source give for AMC011 SOSIP.v4.2 trimer (complex) here?
**A.** The stoichiometry N was 3.

**Q.** What does the source list for AMC011 SOSIP.v5.2 trimer (complex)?
**A.** % native-like trimers [4]: 100%; stoichiometry N [5]: 3

**Q.** How did the % native-like trimers [6] turn out when “AMC009 SOSIP.v4.2-D7324 trimer (complex)” was run?
**A.** The % native-like trimers was 100%.
